Measurements published in patent US20250011380A1.

Key:
Assay in all cases: cell-based or functional assay
[1] = target: IL2Rαβγ on CTLL2 cells
[2] = target: IL-2Rβ and common γ chain on 32Dβ cells
[3] = target: IL-21R on B9 cells

Chain of IL2Rαβγ on CTLL2 cells (P01590 22-268, chain 1 of 3): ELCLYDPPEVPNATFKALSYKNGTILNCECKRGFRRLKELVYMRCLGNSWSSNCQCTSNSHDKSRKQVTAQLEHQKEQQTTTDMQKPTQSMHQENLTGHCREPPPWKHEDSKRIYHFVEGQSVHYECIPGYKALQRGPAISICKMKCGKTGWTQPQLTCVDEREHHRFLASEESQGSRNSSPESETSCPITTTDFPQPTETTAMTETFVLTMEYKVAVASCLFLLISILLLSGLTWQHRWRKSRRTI
Chain of IL2Rαβγ on CTLL2 cells (P16297 27-539, chain 2 of 3, further chain): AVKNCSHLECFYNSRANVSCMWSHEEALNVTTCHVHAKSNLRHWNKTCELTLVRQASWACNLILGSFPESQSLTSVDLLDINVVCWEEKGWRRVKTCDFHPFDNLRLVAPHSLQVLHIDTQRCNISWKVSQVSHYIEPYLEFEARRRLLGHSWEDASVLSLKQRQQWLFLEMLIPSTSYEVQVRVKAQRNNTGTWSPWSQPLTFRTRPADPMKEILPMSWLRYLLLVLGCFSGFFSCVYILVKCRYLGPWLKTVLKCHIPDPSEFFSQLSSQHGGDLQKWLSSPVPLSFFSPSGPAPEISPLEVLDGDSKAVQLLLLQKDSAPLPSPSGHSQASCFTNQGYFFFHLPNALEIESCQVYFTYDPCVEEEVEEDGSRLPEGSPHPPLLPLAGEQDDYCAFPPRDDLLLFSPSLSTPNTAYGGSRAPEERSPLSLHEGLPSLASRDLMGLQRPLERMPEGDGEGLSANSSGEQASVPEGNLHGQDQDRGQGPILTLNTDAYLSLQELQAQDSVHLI
Chain of IL2Rαβγ on CTLL2 cells (P34902 23-369, chain 3 of 3, further chain): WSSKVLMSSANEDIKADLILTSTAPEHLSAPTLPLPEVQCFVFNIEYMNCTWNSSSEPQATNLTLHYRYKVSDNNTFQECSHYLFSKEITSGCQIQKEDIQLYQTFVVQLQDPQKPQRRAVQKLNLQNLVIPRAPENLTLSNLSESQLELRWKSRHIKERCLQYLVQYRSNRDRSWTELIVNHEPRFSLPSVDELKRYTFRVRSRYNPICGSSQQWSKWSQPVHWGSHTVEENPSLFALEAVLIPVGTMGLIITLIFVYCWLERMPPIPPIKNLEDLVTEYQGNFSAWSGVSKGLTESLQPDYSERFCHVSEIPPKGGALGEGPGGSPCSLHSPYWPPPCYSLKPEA

Row | EC50, CTLL-2 cell proliferation (WST1) [1] [nM] | EC50, 32Dβ cell proliferation (WST1) [2] [nM] | EC50, B9 cell proliferation (WST1) [3] [nM] | Substance
1 | 0.548 | 0.14 | – | recombinant IL-2 (from UniProt P60568 21-153) (ligand)
2 | – | – | 72.5 | recombinant IL-21 (from UniProt Q9HBE4 32-162) (ligand)
